The results in this text go back to patent US20260092110A1 (Kyowa Kirin, published 2026).

Experiment [1] deals with T1, extracellular domain protein of human MOG to which GST is added at the C-terminus (hMOG-GST) (human). Nature of the experiment: SPR, antibody captured, hMOG-GST analyte. Here is the method: (§1) The antibodies were immobilized on CM5 sensor chips using a Human antibody Capture kit, and the binding abilities were evaluated using rMOG-GST produced in Example 4 as an analyte. The obtained sensorgrams were analyzed with BIA evaluation software, and the dissociation constants (KD values) were thus calculated.
The results of evaluation of the affinities to human MOG are shown in Table 14, and the results of evaluation of the affinities to mouse MOG are shown in Table 15.

Experiment [2] deals with T2, extracellular domain protein of mouse MOG to which GST is added at the C-terminus (mMOG-GST) (mouse). Nature of the experiment: SPR, antibody captured, mMOG-GST analyte. (In general: Surface plasmon resonance follows binding to a sensor surface in real time, without labels.)
The target in experiment [3] is T1, extracellular domain protein of human …. Nature of the experiment: SPR, antibody captured, hMOG-GST analyte; KD not unique (ka outside range).
Experiment [4] has the same target. Nature of the experiment: SPR, antibody captured, hMOG-GST analyte; ka outside the measurement range.
In experiment [5] the target is T2, extracellular domain protein of mouse …. The experiment is described as follows: SPR, antibody captured, mMOG-GST analyte; paragraph 625: KD could not be determined as a unique value.
Experiment [6] shares this target. The experiment is described as follows: SPR, antibody captured, mMOG-GST analyte; paragraph 625: ka of MOG01 scFv-hG4PE outside the measurement range.
Experiment [7] has as its target T3, extracellular domain protein of rat MOG to which GST is added at the C-terminus (rMOG-GST) (rat).
T3 construct: whole construct entry
The experiment is described as follows: SPR as in Example 8 (antibody captured, rMOG-GST analyte). Here is the method: as §1

Experiment [8] deals with T3, extracellular domain protein of rat MOG …. The experiment is described as above. How it is done:
as §1
Binding of the bispecific antibodies obtained in Example 6 and Example 16 to MOG was evaluated by the same method as that of Example 8.
The source holds these as a separate data set.

Experiment [9] concerns the target T4, human MOG (hMOG) expressed on HEK293, Expi293F or L929 cells (human, UniProt Q16653 30-247).
T4 construct: also called hMOG/HEK293; hMOG/HEK293F
T4 chain: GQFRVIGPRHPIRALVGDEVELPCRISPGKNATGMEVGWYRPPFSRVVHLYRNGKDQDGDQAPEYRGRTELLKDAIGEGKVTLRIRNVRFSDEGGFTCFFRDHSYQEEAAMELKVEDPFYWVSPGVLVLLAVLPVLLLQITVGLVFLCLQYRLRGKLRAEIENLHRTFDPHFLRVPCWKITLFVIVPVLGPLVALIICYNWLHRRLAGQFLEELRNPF
The experiment is described as follows: flow cytometry, hMOG/L929 cells. The text has this: pEF6_hMOG obtained in Example 5 was introduced to mouse connective tissue-derived fibroblast L929 cells [American Type Culture Collection (ATCC) No.: CCL-1] using HilyMax (manufactured by Dojindo Laboratories). The gene-transfected cells were selected using an antibiotic substance, Blasticidin (manufactured by Invitrogen) and then cloned by the limiting dilution method. Using the L929 cells expressing hMOG on the cell surface (abbreviated as hMOG/L929 below), the reactivities of the bispecific antibodies were analyzed by the method described below.
The hMOG/L929 cells were suspended in a Staining Buffer (SB) of PBS containing 0.1% NaN₃ and 1% FBS and dispensed to a round-bottom 96-well plate (manufactured by Becton Dickinson). […] After suspending the pellets, the plate was left to stand at ice temperature for 30 minutes. The supernatants were removed after further centrifugation (2000 rpm, 4° C., two minutes), and the pellets were washed with SB. Then, 1 μg/mL RPE fluorescently labeled goat anti-human antibody (manufactured by Southern Biotech) was added, and the plate was incubated at ice temperature for 30 minutes. After washing with SB, the cells were suspended in SB, and the fluorescence intensities of the cells were measured with a flow cytometer FACS CANTO II (manufactured by Becton Dickinson). The results are shown in FIGS. 12A to 12C and FIGS. 13A and 13B.
(In flow cytometry, cells or beads pass a laser one at a time.)

Experiment [10] concerns the target T3, extracellular domain protein of rat MOG …. The experiment is described as follows: SPR Biacore T-100, antibody captured, rMOG-GST analyte. Here is the method:
as §1

Experiment [11] deals with T5, rat MOG (rMOG) expressed on HEK293F cells (rat, UniProt Q63345 28-245).
T5 construct: also called rMOG/HEK293F
T5 sequence: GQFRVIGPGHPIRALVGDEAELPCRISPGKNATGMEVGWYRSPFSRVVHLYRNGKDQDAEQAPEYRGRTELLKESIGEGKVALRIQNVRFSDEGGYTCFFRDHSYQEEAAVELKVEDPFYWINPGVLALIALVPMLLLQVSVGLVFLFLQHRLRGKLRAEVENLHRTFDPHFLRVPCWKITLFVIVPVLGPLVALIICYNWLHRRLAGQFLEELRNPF
Nature of the experiment: flow cytometry on HEK293 cells transiently expressing rat MOG; antibody at 10 µg/mL, RPE-labelled goat anti-human antibody; negative control anti-AVM antibody. How it is done: (§2) rMOG/HEK293F, mMOG/IEK293F, cMOG/HEK293 and hMOG/HEK293 cells were suspended in a Staining Buffer (SB) of PBS containing 0.1% NaN₃ and 1% FBS each at a concentration of 5×10⁵ cells/mL and dispensed to a round-bottom 96-well plate (manufactured by Becton Dickinson).
(§3) After centrifugation (2000 rpm, 4° C., two minutes), the supernatants were removed, and the antibodies obtained in Example 6 at 10 μg/mL were added to the pellets. After suspending the pellets, the plate was left to stand at ice temperature for 30 minutes. The supernatants were removed after further centrifugation (2000 rpm, 4° C., two minutes), and the pellets were washed with SB. Then, 1 μg/mL RPE fluorescently labeled goat anti-human antibody (manufactured by […]) was added, and the plate was incubated at ice temperature for 30 minutes.
(§4) After washing with SB, the cells were suspended in SB, and the fluorescence intensities of the cells were measured using a flow cytometer FACS CANTO II (manufactured by Becton Dickinson). As the negative control, an anti-AVM antibody was used.

The target in experiment [12] is T4, human MOG (hMOG) expressed on HEK293, …. The experiment is described as follows: flow cytometry on HEK293 cells transiently expressing human MOG; antibody at 10 µg/mL, RPE-labelled goat anti-human antibody; negative control anti-AVM antibody. Here is the method: as §2, §3, §4
The target in experiment [13] is T6, cynomolgus monkey MOG (cMOG) expressed on HEK293 cells (cynomolgus monkey, UniProt Q9BGS7 30-247).
T6 construct: also called cMOG/HEK293
T6 sequence: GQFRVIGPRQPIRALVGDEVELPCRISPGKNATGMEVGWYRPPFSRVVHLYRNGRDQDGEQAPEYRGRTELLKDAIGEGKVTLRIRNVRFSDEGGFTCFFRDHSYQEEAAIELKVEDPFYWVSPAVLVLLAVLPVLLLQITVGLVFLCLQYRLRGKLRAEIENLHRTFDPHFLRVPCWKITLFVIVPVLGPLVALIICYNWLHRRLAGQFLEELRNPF
The experiment is described as follows: flow cytometry on HEK293 cells transiently expressing cynomolgus monkey MOG; antibody at 10 µg/mL, RPE-labelled goat anti-human antibody; negative control anti-AVM antibody. Here is the method:
as §2, §3, §4

For experiment [14], the target named is T6, cynomolgus monkey MOG (cMOG) expressed …. The experiment is described as follows: flow cytometry on HEK293 cells transiently expressing cynomolgus monkey MOG; RPE-labelled goat anti-human antibody; negative control anti-AVM antibody.

T2 sequence (chain, as listed by the source limits assumed): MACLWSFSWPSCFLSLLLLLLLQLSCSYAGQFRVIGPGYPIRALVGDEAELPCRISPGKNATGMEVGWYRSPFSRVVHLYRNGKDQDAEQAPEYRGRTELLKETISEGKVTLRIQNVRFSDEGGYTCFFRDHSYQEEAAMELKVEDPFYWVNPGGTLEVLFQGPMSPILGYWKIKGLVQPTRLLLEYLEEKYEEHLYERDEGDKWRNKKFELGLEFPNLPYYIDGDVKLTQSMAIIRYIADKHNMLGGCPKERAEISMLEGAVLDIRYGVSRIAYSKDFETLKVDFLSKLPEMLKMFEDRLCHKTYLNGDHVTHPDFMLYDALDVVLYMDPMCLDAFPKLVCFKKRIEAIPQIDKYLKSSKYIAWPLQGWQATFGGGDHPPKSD

B1: MOG01 scFv-hG4PE (Fc fusion)
chain: QVQLQQSGAGLLKPSETLSLTCAVSGGSFSGYYWTWIRQRPGKGLEWIGEINHRGSTDYNPSLKSRVTMSIDTSKSQFSLNLKSVTAADTAVYYCARAAWGSCYDGTCYPAEYFQYWGQGTLVTVSSGGGGSGGRASGGGGSQSALTQPASVSGSPGQSITISCTGTSRDVGGYNYVSWYQQHPGKAPKLMIYDVNNRPSGVSNRFSGSKSGNTASLTISGLQAEDEADYFCSSYTSSSTPVVFGGGTKLTVL
Take B1: the figures for the koff in [1] and in experiment [2] were 0.015 s⁻¹ and 0.04 s⁻¹, respectively. In addition, the dissociation constant (Kd) in experiment [3] was determined as 3.6 nM; in [5], 6.9 nM. Also, the kon worked out at 4.1e+06 M⁻¹ s⁻¹ in experiment [4] and 5.9e+06 M⁻¹ s⁻¹ in experiment [6].

B2: AVM IgG4PE(R409K)_MOG01dscFv antibody (bispecific antibody)
heavy: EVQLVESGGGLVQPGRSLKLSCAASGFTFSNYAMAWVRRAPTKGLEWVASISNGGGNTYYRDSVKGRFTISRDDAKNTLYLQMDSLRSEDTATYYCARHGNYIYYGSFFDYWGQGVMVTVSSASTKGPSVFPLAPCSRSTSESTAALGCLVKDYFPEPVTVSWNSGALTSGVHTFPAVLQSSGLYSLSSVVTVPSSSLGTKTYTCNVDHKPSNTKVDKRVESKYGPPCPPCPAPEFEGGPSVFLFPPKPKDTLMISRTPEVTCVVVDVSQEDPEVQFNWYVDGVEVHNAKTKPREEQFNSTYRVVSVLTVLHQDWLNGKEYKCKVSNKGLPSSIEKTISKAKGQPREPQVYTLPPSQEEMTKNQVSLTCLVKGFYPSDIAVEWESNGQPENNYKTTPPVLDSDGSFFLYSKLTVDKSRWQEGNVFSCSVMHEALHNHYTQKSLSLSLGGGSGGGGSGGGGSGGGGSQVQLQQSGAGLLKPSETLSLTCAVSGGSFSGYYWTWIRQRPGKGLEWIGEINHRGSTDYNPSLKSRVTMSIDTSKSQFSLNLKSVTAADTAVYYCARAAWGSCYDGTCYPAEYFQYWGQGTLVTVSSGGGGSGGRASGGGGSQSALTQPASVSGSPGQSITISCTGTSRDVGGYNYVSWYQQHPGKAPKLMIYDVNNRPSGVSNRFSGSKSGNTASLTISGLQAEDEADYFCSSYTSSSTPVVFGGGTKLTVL
light: QFVLSQPNSVSTNLGSTVKLSCKRSTGNIGSNYVSWYQQHEGRSPTTMIYRDDKRPDGVPDRFSGSIDRSSDSALLTINNVQTEDEADYFCQSYSSGINIFGGGTKLTVLGQPKAAPSVTLFPPSSEELQANKATLVCLISDFYPGAVTVAWKADSSPVKAGVETTTPSKQSNNKYAASSYLSLTPEQWKSHRSYSCQVTHEGSTVEKTVAPTECS
notes: MOG01 scFv fused to the C-terminus of anti-AVM IgG; also called pCI-AVM-hLG4PE(R409K)_MOG01scFv
For the molecule B2, in experiment [7], the affinity, expressed as Kd, was 200 nM; the koff is 0.0046 s⁻¹; the kon was determined as 23000 M⁻¹ s⁻¹. For the same molecule, in experiment [8], the Kd is 200 nM, the koff is 0.0049 s⁻¹ and the kon turned out to be 24000 M⁻¹ s⁻¹.

B3: AVM IgG4PE(R409K)_MOG01dscFv5 antibody (bispecific antibody)
heavy: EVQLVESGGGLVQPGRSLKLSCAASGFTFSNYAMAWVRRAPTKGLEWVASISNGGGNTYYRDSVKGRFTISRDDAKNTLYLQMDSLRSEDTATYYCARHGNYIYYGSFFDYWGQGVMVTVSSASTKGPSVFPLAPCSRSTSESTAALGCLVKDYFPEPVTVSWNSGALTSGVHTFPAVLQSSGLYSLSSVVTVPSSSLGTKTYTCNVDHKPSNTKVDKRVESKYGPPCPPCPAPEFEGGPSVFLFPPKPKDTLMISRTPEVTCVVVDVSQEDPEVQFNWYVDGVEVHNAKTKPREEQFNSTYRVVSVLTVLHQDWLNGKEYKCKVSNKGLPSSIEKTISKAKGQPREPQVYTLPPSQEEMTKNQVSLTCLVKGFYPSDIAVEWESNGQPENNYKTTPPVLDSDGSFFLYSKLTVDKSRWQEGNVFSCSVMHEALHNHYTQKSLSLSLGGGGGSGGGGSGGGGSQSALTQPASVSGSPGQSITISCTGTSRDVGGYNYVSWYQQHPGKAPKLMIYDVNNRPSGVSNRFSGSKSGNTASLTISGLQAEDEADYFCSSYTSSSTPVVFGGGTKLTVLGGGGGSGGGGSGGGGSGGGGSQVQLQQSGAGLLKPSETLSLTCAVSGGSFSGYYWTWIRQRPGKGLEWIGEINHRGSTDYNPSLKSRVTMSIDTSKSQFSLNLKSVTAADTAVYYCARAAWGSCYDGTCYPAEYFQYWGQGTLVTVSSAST
light: QFVLSQPNSVSTNLGSTVKLSCKRSTGNIGSNYVSWYQQHEGRSPTTMIYRDDKRPDGVPDRFSGSIDRSSDSALLTINNVQTEDEADYFCQSYSSGINIFGGGTKLTVLGQPKAAPSVTLFPPSSEELQANKATLVCLISDFYPGAVTVAWKADSSPVKAGVETTTPSKQSNNKYAASSYLSLTPEQWKSHRSYSCQVTHEGSTVEKTVAPTECS
notes: also called pCI-AVM-hLG4PE(R409K)_MOG01scFv5
As to B3, the binding result in experiment [9] was “binds”. Also, in experiment [8], the equilibrium dissociation constant (Kd) was determined as 24 nM, the koff was 0.0048 s⁻¹ and the kon worked out at 200000 M⁻¹ s⁻¹.

B4: AVM IgG4PE(R409K)_MOG01dscFv3 antibody (bispecific antibody)
heavy: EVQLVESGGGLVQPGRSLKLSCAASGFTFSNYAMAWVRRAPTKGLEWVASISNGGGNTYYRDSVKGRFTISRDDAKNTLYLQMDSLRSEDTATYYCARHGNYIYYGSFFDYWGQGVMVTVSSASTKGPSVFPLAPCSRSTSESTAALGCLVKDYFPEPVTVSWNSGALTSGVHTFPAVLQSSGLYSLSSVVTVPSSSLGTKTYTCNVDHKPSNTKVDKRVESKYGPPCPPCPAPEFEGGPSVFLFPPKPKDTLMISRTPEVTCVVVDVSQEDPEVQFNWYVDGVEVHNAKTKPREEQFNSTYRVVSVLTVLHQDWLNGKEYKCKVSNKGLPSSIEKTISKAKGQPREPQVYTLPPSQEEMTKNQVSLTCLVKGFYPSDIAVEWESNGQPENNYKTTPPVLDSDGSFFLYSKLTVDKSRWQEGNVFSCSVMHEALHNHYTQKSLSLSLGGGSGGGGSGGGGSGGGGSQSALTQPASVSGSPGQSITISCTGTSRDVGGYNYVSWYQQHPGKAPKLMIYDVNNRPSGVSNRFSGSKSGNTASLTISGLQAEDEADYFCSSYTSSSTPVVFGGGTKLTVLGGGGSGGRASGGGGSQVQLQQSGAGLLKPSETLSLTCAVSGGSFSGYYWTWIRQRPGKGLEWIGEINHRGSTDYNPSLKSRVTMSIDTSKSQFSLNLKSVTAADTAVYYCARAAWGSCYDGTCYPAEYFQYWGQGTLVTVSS
light: QFVLSQPNSVSTNLGSTVKLSCKRSTGNIGSNYVSWYQQHEGRSPTTMIYRDDKRPDGVPDRFSGSIDRSSDSALLTINNVQTEDEADYFCQSYSSGINIFGGGTKLTVLGQPKAAPSVTLFPPSSEELQANKATLVCLISDFYPGAVTVAWKADSSPVKAGVETTTPSKQSNNKYAASSYLSLTPEQWKSHRSYSCQVTHEGSTVEKTVAPTECS
notes: also called pCI-AVM-hLG4PE(R409K)_MOG01scFv3
With B4, the binding result in experiment [9] is recorded as “binds”. In experiment [8], binding was put at a Kd of 13 nM, the koff is 0.0022 s⁻¹ and the on-rate constant (kon) came out at 170000 M⁻¹ s⁻¹.

B5: MOG14 antibody (anti-MOG human IgG antibody expressed from N5KG4PE_MOG14) (antibody, V domains shown)
VH: QVQLVQSGAEVKKPGASVKVSCQASGYTFTGDYIHWVRQAPGQGLEYLGWINPDRGFTYYTQKFQGRVTMTRDTSSNTAYMELSSLRSDDTAMYYCTRENPRAYFFDLWGQGTLVTVSS
VL: EIVLTQSPGTLSLSPGERATLSCRASQSISGSYVTWYQQKPGQAPRLLIYATSNRAIGIPDKFSGGGSGRDFTLTINRLEPEDFAVYYCQQSVSSPYTFGQGTKVEIK
With B5, in [10], the Kd stood at 40 nM, the koff came to 0.00019 s⁻¹ and the on-rate (kon) stood at 4700 M⁻¹ s⁻¹. Also, the binding result in experiment [11] is recorded as “binds”. The binding result in [12] was “binds”. In experiment [13], the binding result was “binds”.

B6: MOG01 antibody (anti-MOG human IgG antibody expressed from N5LG4PE_MOG01) (antibody, V domains shown)
VH: QVQLQQSGAGLLKPSETLSLTCAVSGGSFSGYYWTWIRQRPGKGLEWIGEINHRGSTDYNPSLKSRVTMSIDTSKSQFSLNLKSVTAADTAVYYCARAAWGSCYDGTCYPAEYFQYWGQGTLVTVSS
VL: QSALTQPASVSGSPGQSITISCTGTSRDVGGYNYVSWYQQHPGKAPKLMIYDVNNRPSGVSNRFSGSKSGNTASLTISGLQAEDEADYFCSSYTSSSTPVVFGGGTKLTVL
notes: also called anti-MOG01 human IgG antibody; MOG01 IgG4PE
With B6, in experiment [10], the Kd stood at 6.6 nM, the koff worked out at 0.00095 s⁻¹ and the kon is 140000 M⁻¹ s⁻¹. The binding result in experiment [11] was “binds”. For the same molecule, the binding result in [12] is recorded as “binds”. Also, the binding result in [13] is on record as “binds”.

B7: iMOG-3Rim1-S32 antibody (VHH-Fc expressed from N5G4PEFc_iMOG-3Rim1-S32) (Fc fusion)
chain: QVQLVESGGGLVQTGGSLRLSCAASGSMFSTMGWFRQAPGNQRELVAIMSSGGTANYADSVKGRFTISGDNVKNTVTLQMNSLNPEDTAVYYCRFTGWVKSSFSTYWGQGTQVTVSS
notes: not shown: Fc region of human IgG4PE
For B7, in experiment [14], the binding result is recorded as “no binding (tested: 10 µg/mL)”.

For orientation: koff means the first-order rate constant of dissociation. One may read the Kd as the equilibrium constant for the complex coming apart. In general, kon refers to the rate constant with which the complex forms.
